From paper PMC4770236

Key:
[1] = biological target: TRF2 (Telomeric Repeat-binding Factor 2), full length (human); experiment: ITC
[2] = biological target: TRFH domain of TRF2 (TRF2 dimerization domain) (human); experiment: ITC
[3] = biological target: TRF2 (Telomeric Repeat-binding Factor 2), full length (human); experiment: SAXS
[4] = biological target: TRF2 (Telomeric Repeat-binding Factor 2), full length (human); experiment: SEC-MALS + ITC
RAP1 = biological target: T1, RAP1 (human, UniProt Q9NYB0 1-399); experiment: ITC
T1 sequence: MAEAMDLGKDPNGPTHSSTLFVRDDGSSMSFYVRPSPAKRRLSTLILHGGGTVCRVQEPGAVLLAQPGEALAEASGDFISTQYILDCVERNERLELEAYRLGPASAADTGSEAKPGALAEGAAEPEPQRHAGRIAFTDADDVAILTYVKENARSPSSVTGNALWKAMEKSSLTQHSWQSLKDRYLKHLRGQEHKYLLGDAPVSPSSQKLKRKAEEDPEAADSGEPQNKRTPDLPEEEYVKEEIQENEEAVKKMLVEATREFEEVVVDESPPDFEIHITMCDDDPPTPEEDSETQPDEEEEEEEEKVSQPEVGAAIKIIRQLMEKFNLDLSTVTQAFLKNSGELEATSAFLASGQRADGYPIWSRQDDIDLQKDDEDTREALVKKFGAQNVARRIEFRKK

[5] = biological target: TRF2 (Telomeric Repeat-binding Factor 2), full length (human); experiment: ITC; remark: listed apart in the source

For “Apollo-YLP peptide (Apollo residues 494-511)”, the Kd [1] was 46 nM and the Kd [2] was 59 nM.

Work on “TRF2 (Telomeric Repeat-binding Factor 2), full length (natural protein)” yielded a stoichiometry N [3] of 2 and a stoichiometry N [4] of 2.

B1: T2-S1-S2 (T2AG3 duplex) (dsDNA)
DNA 1: CTAGGGTTAGGGTTAG
DNA 2: CTAACCCTAACCCTAG
B1: no binding (RAP1).

B2: RAP1 (Repressor Activator Protein 1), full length (natural protein)
chain: T1 sequence
With B2 the KD of the high affinity site (two-independent sites model) [5] was less than 1 nM and the KD of the lower affinity site (two-independent sites model) [5] was 0.5 µM.
